The text below walks through data of the MegaScale stability set (Tsuboyama et al. 2023).

The labels stand for the following.
B1: HHH_rd1_0493 (parent)
chain: RDEDEKEKIKEALKRGNEDKAKEIAKRANVSPEEYERLRKEAE

In this series the parent is B1. In words: folding stability dG (cDNA display proteolysis); higher = more stable. The following applies: PBS, room temperature.
With R1E, the “folding stability dG” value was 3.02 kcal/mol.
Turning to R1P, the “folding stability dG” value stood at 3.19 kcal/mol.
In the case of R1S, the “folding stability dG” value came out at 3.15 kcal/mol.
R1Q: the “folding stability dG” value was found to be 3.1 kcal/mol.
Consider R1Y, for which the “folding stability dG” value is 3.11 kcal/mol.
Consider R1H, for which the “folding stability dG” value was 3.11 kcal/mol.
Turning to R1N, the “folding stability dG” value turned out to be 3.16 kcal/mol.
Then R1F, with 3.01 kcal/mol.
Turning to R1G, the “folding stability dG” value was 3.1 kcal/mol.
The value for E5F was 4.03 kcal/mol; that for E5Y was 4.39 kcal/mol.
For E5P, the “folding stability dG” value came out at 3.46 kcal/mol.
E5W: the “folding stability dG” value was 4.45 kcal/mol.
Then E5D, with 3 kcal/mol; and E5L, with 3.6 kcal/mol; and R39F, with 1.95 kcal/mol.
For the variant R39N, the “folding stability dG” value was 1.18 kcal/mol.
Then R39G, with 1.16 kcal/mol; and R39V, with 2.65 kcal/mol.
With R39Y, the “folding stability dG” value was determined as 1.87 kcal/mol.
Consider R39K, for which the “folding stability dG” value is 2.99 kcal/mol.
On to R39L, for which the “folding stability dG” value was determined as 2.17 kcal/mol.
In the case of R39H, the “folding stability dG” value was determined as 1.8 kcal/mol.
R39D: the “folding stability dG” value stood at 0.392 kcal/mol.
For R39W, the “folding stability dG” value was determined as 2.02 kcal/mol.
In the case of R39S, the “folding stability dG” value was found to be 2.1 kcal/mol.
As to V30D, the “folding stability dG” value came to 0.32 kcal/mol.
As to V30H, the “folding stability dG” value turned out to be 0.486 kcal/mol.
Take V30I: the “folding stability dG” value came to 3.41 kcal/mol.
Then V30Y, with 1.84 kcal/mol; and V30T, with 1.84 kcal/mol.
V30S: the “folding stability dG” value came to 0.63 kcal/mol.
V30Q: the “folding stability dG” value was determined as 0.766 kcal/mol.
The value for E23N was 2.02 kcal/mol; that for E23G was 1.92 kcal/mol; that for E23P was 0.537 kcal/mol.
Take E23R: the “folding stability dG” value is 2.39 kcal/mol.
On to E23T, for which the “folding stability dG” value turned out to be 2.22 kcal/mol.
Regarding S31L, the “folding stability dG” value worked out at 2.21 kcal/mol.
With S31N, the “folding stability dG” value was determined as 2.39 kcal/mol.
For the variant S31R, the “folding stability dG” value turned out to be 1.87 kcal/mol.
The value for S31E was 2.17 kcal/mol.
On to S31A, for which the “folding stability dG” value came to 2.45 kcal/mol.
As to S31D, the “folding stability dG” value worked out at 2.6 kcal/mol.
The value for A28I was 2.98 kcal/mol.
As for A28Q, the “folding stability dG” value was 2.23 kcal/mol.
As for A28K, the “folding stability dG” value was found to be 1.82 kcal/mol.
Then A28F, with 2.91 kcal/mol.
Turning to A28Y, the “folding stability dG” value turned out to be 3.02 kcal/mol.
Consider A28P, for which the “folding stability dG” value came out at 0.576 kcal/mol.
Then A28W, with 2.25 kcal/mol; and A28C, with 2.78 kcal/mol; and A28V, with 2.32 kcal/mol.
Consider N29D, for which the “folding stability dG” value is 2.39 kcal/mol.
With N29P, the “folding stability dG” value turned out to be 0.97 kcal/mol.
N29E: the “folding stability dG” value amounted to 2.29 kcal/mol.
As for N29G, the “folding stability dG” value came out at 3.3 kcal/mol.
Consider N29I, for which the “folding stability dG” value was 1.23 kcal/mol.
With K20I, the “folding stability dG” value worked out at 3.16 kcal/mol.
K20V: the “folding stability dG” value was 3.24 kcal/mol.
Turning to K20R, the “folding stability dG” value turned out to be 3 kcal/mol.
In the case of K20H, the “folding stability dG” value turned out to be 2.87 kcal/mol.
K20L: the “folding stability dG” value is 4.31 kcal/mol.
Then K20E, with 3.82 kcal/mol; and K14D, with 1.1 kcal/mol; and K14A, with 2.53 kcal/mol.
The value for K14P was 0.417 kcal/mol; that for K14E was 1.75 kcal/mol; that for K14S was 2.36 kcal/mol.
The value for K14C was 2.24 kcal/mol.
As for K14N, the “folding stability dG” value amounted to 1.81 kcal/mol.
On to A12Q, for which the “folding stability dG” value was determined as 2.69 kcal/mol.
With A12I, the “folding stability dG” value came to 1.24 kcal/mol.
In the case of A12N, the “folding stability dG” value amounted to 2.1 kcal/mol.
Consider A12H, for which the “folding stability dG” value was 2.85 kcal/mol.
As for A12V, the “folding stability dG” value was determined as 1.06 kcal/mol.
N17R: the “folding stability dG” value amounted to 2.68 kcal/mol.
Turning to N17F, the “folding stability dG” value came to 2.98 kcal/mol.
Then N17H, with 3.01 kcal/mol.
As for N17Y, the “folding stability dG” value is 2.75 kcal/mol.
As to N17T, the “folding stability dG” value was 1.63 kcal/mol.
The value for N17W was 3.09 kcal/mol; that for N17D was 3.78 kcal/mol.
With K8A, the “folding stability dG” value was 3.29 kcal/mol.
For the variant K8G, the “folding stability dG” value stood at 2.34 kcal/mol.
For the variant K8L, the “folding stability dG” value turned out to be 3.06 kcal/mol.
E7G: the “folding stability dG” value is 2.62 kcal/mol.
In the case of E7I, the “folding stability dG” value was found to be 3.06 kcal/mol.
In the case of E7N, the “folding stability dG” value worked out at 2.96 kcal/mol.
The value for E7D was 2.7 kcal/mol.
On to E7A, for which the “folding stability dG” value came out at 3.08 kcal/mol.
For the variant E7S, the “folding stability dG” value was 2.92 kcal/mol.
Consider R27M, for which the “folding stability dG” value is 2.61 kcal/mol.
In the case of R27V, the “folding stability dG” value was 2.42 kcal/mol.
As for R27Q, the “folding stability dG” value was 2.83 kcal/mol.
Turning to R27G, the “folding stability dG” value is 2.36 kcal/mol.
Consider R27L, for which the “folding stability dG” value was 2.82 kcal/mol.
The value for E3I was 2.75 kcal/mol.
Take E3L: the “folding stability dG” value came to 2.89 kcal/mol.
Regarding E3M, the “folding stability dG” value was found to be 2.81 kcal/mol.
Consider E3A, for which the “folding stability dG” value was 2.88 kcal/mol.
For the variant E3N, the “folding stability dG” value came to 3 kcal/mol.
Then E3W, with 3 kcal/mol; and D19H, with 2.85 kcal/mol; and D19E, with 3.28 kcal/mol.
In the case of D19A, the “folding stability dG” value came out at 3.31 kcal/mol.
D19K: the “folding stability dG” value was 3.07 kcal/mol.
As for D19W, the “folding stability dG” value was found to be 2.72 kcal/mol.
Regarding D2Q, the “folding stability dG” value was found to be 3.15 kcal/mol.
For the variant D2P, the “folding stability dG” value was 3.06 kcal/mol.
As to D2G, the “folding stability dG” value is 2.95 kcal/mol.
The value for D2Y was 3.38 kcal/mol.
For D2K, the “folding stability dG” value was found to be 2.82 kcal/mol.
The value for E43N was 2.59 kcal/mol.
The value for E43R was 2.72 kcal/mol.
The value for E43H was 2.77 kcal/mol; that for E43L was 3.33 kcal/mol; that for E43I was 3.07 kcal/mol.
For E43A, the “folding stability dG” value came to 2.94 kcal/mol.
Turning to D4H, the “folding stability dG” value amounted to 2.82 kcal/mol.
With D4Y, the “folding stability dG” value was determined as 2.9 kcal/mol.
In the case of D4R, the “folding stability dG” value was determined as 2.88 kcal/mol.
D4G: the “folding stability dG” value was 2.8 kcal/mol.
Take D4C: the “folding stability dG” value was found to be 2.96 kcal/mol.
As to D4M, the “folding stability dG” value came to 2.96 kcal/mol.
The value for D4E was 2.98 kcal/mol; that for D4Q was 2.88 kcal/mol; that for D4W was 3.02 kcal/mol.
Take L38R: the “folding stability dG” value was 0.571 kcal/mol.
In the case of L38G, the “folding stability dG” value worked out at 0.162 kcal/mol.
The value for L38K was 0.318 kcal/mol; that for L38Q was 0.492 kcal/mol.
On to R15Y, for which the “folding stability dG” value is 2.69 kcal/mol.
Consider R15Q, for which the “folding stability dG” value worked out at 3.39 kcal/mol.
The value for R15V was 2.83 kcal/mol.
Consider R15M, for which the “folding stability dG” value stood at 3.21 kcal/mol.
As for L13K, the “folding stability dG” value was determined as 0.273 kcal/mol.
As for L13S, the “folding stability dG” value stood at 0.332 kcal/mol.
On to L13E, for which the “folding stability dG” value was found to be 0.376 kcal/mol.
The value for L13M was 2.49 kcal/mol; that for L13W was 1.14 kcal/mol; that for L13I was 2.84 kcal/mol.
The value for L13A was 0.528 kcal/mol; that for L13C was 1.37 kcal/mol; that for L13T was 0.471 kcal/mol.
Take A42I: the “folding stability dG” value came out at 2.87 kcal/mol.
Turning to A42Y, the “folding stability dG” value is 2.14 kcal/mol.
The value for A42S was 2.37 kcal/mol; that for A42E was 1.25 kcal/mol; that for I9Q was 0.476 kcal/mol.
Then I9A, with 0.796 kcal/mol; and I9F, with 0.774 kcal/mol.
For the variant I9V, the “folding stability dG” value was determined as 2.09 kcal/mol.
Consider I9D, for which the “folding stability dG” value was determined as 0.479 kcal/mol.
Take I9P: the “folding stability dG” value stood at 0.579 kcal/mol.
With Y35C, the “folding stability dG” value worked out at 0.708 kcal/mol.
Regarding Y35R, the “folding stability dG” value was determined as 0.281 kcal/mol.
As to Y35T, the “folding stability dG” value stood at 0.361 kcal/mol.
Consider Y35K, for which the “folding stability dG” value came out at 0.009 kcal/mol.
As to Y35M, the “folding stability dG” value stood at 2.29 kcal/mol.
The value for E33W was 2.06 kcal/mol; that for E33N was 2.07 kcal/mol; that for E33D was 2.64 kcal/mol.
The value for E33Q was 2.58 kcal/mol; that for E33L was 2.27 kcal/mol.
For E33Y, the “folding stability dG” value is 1.92 kcal/mol.
The value for E36Q was 2.11 kcal/mol.
